Measurements reported in patent US20220251152A1, “COMPOSITIONS AND METHODS FOR SELECTIVE PROTEIN DEGRADATION” (Novartis AG, priority 2019, published 2022).

Biological target: T1, IKZF3 136-180 and 236-249-tagged avian myelocytomatosis viral oncogene (MYC) homolog (Homo sapiens, UniProt Q96SW2+Q9UKT9, DEL181-196/S197T)
T1 construct: expressed in transfected cells; host or cells: HEK293T
Assay: Western blot of IKZF3-tagged MYC in HEK293T cells
Type: cell-based
Conditions: tag fused to N-terminus of MYC; lenalidomide 4 hours

T1 sequence (Q96SW2 whole entry, stated change not applied, one chain of several): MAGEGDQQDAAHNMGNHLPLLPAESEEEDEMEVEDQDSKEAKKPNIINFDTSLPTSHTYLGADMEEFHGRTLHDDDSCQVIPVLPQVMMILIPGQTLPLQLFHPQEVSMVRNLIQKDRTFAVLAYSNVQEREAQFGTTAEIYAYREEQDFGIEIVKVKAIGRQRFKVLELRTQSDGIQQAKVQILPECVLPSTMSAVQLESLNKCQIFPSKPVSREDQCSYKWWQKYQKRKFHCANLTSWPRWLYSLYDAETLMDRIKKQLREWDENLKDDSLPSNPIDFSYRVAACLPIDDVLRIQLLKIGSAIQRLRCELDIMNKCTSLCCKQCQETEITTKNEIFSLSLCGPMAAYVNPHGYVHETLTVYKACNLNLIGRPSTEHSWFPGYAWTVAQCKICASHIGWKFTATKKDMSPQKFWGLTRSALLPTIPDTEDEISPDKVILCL

IKZF3 136-180 and 236-249: IKZF3-based degradation tag with amino acid residues 136-180 and 236-249 of human IKZF3, SEQ ID NO: 3 (HKRSHTGERPFQCNQCGASFTQKGNLLRHIKLHTGEKPFKCHLCNTASAEARHIKAEMG; source: /note="Description of Unknown: IKZF3 sequence")
ability of the tag to mediate lenalidomide-dependent degradation of MYC: mediated the lenalidomide-dependent degradation of tagged MYC
